In the assay the target is T1, C5a receptor (Homo sapiens, UniProt P21730).
T1 construct: expressed in transfected cells; host or cells: Saccharomyces cerevisiae strain CY10103 (sibling strains CY13970/13971 and CY13974/13975), carrying gpa1(41)-Gαi2, with a FUS1p-lacZ reporter plasmid
T1 sequence (P21730 1-350): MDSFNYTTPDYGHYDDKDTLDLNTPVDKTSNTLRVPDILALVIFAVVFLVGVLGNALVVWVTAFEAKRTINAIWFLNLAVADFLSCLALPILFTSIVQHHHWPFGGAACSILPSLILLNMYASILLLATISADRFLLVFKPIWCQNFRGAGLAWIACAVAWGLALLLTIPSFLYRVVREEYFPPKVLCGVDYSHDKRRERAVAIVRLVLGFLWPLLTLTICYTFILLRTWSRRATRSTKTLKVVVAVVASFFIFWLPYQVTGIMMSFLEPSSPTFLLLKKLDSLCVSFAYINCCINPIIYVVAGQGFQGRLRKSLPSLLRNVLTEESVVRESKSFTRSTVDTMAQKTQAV
In words: FUS1p-lacZ β-galactosidase reporter assay in yeast expressing a heterologous C5a receptor. The assay is classed as cell-based. Conditions: yeast strains carrying C5a receptor plasmid and FUS1p-lacZ reporter; 4 hours incubation with varying concentrations of ChaCha. The source says:
Yeast strains expressing heterologous GPCRs can be constructed as previously described (see e.g. WO 94/23025). In this example, to create a yeast strain expressing a heterologous GPCR and a Ste5 expression plasmid, yeast strain CY10103 (genotype MATa ste18 g6-3841 far1D1442 cyh2 tbt1-1 FUS1p-HIS3 can1 ste14::trp1::LYS2 ste3D1156 gpa1(41)-Gαi2 lys2 ura3 leu2 trp1 his3 ade2D3447 ade8D3457) was transformed by electroporation with a C5a receptor-bearing plasmid (Cp1303; genotype LEU2 PGKp-C5aR 2m-ori REP3 bla), a reporter plasmid (Cp1584; genotype bla TRP1 2m-ori FUS1p-lacZ), and plasmids that express either wild-type STE5p (Cp5373; genotype URA3 CEN6 ARSH4 bla FUS1p-STE5), a hyperactive STE5p mutant (Cp5643; genotype URA3 CEN6 ARSH4 bla FUS1p-STE5(S18R,T52M)), or no STE5p (Cp1015; genotype URA3 CEN6 ARSH4 bla). Triple transformants were selected on SC plates lacking uracil, tryptophan, and leucine. […]

Square brackets hold non-standard residues; d marks the D form. Ends that are not written are not given here. NMeF = CN[C@@H](Cc1ccccc1)C(=O)O; Cha = N[C@@H](CC1CCCCC1)C(=O)O; dCha = N[C@H](CC1CCCCC1)C(=O)O

In the case of “N-methyl-Phe-Lys-Pro-dCha-Cha-dArg ([NMeF]KP[dCha][Cha][dR]) [ChaCha, C5a receptor ligand; Cha is cyclohexylalanine]”, the “responsiveness to ligand, monitored as β-galactosidase activity (agonist activity at the C5a receptor)” value is “potent agonist”.
